Measured values published in US20250277030A1 (Zymeworks, published 2025).

T1: human sodium-dependent phosphate transporter 2B (NaPi2b) (human, UniProt O95436 1-690)
T1 sequence: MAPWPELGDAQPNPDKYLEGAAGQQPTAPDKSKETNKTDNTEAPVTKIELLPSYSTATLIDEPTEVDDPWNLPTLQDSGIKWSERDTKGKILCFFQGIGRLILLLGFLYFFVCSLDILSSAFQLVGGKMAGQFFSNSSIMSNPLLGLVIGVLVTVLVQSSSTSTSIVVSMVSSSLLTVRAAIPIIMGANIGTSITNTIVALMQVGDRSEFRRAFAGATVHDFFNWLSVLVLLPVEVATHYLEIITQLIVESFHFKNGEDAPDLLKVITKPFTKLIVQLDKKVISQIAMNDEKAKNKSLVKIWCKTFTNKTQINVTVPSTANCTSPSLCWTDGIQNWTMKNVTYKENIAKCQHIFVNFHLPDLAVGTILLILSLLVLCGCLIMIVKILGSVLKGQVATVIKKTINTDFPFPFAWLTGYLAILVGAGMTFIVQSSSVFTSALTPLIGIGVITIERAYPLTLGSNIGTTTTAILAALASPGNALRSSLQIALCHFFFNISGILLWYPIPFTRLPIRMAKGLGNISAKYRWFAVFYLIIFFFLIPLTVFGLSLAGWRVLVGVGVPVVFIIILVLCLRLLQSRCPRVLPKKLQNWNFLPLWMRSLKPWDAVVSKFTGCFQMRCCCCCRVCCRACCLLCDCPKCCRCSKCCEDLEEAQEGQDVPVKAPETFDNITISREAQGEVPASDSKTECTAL


What was measured:
[1] = biological target: T1, human sodium-dependent phosphate …; test: cell-based or functional assay
[2] = biological target: T1, human sodium-dependent phosphate …; test: flow cytometry, IGROV-1 cells (endogenous NaPi2b), 24 h at 4 °C
Protocol: (§1) IGROV-1 cells express endogenous NaPi2b at a high level.
(§2) Briefly, cells were seeded at 50,000 cells/well in conical-bottom 96-well plates and treated with test antibody for 24 hours at 4° C. to prevent internalization. […] Following incubation, cells were washed and stained with anti-Human IgG Fc AF647 conjugate (Jackson Immuno Research Labs, West Grove, PA; Cat. No. 109-605-098) at 4° C. for 30 min. Following incubation and washing, fluorescence was detected by flow cytometry on a BD LSRFortessa™ Cell Analyzer (BD Biosciences, Franklin Lake, NJ) with 1,000 minimum events collected per well. The AF647/APC-A GeoMean (fluorescence signal geometric mean, proportional to anti-Human AF647 binding) was calculated for the live cell population using FlowJo™ Version 10.8.1 (BD Biosciences, Franklin Lake, NJ) and plotted for each test antibody using GraphPad Prism Version 9 (GraphPad Software, San Diego, CA).

[3] = biological target: T1, human sodium-dependent phosphate …; test: flow cytometry, IGROV-1 cells (endogenous NaPi2b), 24 h at 4 °C; apparent Kd
Protocol: as §1, §2

Binder | Bmax (MFI) [2] [MFI] | Kd [3] [nM] | In vitro cytotoxicity EC50 (nM), HCC-78 [1] [nM] | In vitro cytotoxicity EC50 (nM), IGROV-1 [1] [nM] | In vitro cytotoxicity EC50 (nM), OVCAR-3 [1] [nM]
v23855-DL3, v23855 conjugated to MC-VC-PABC-MMAE (DAR 4) (antibody, human IgG1, kappa, V domains shown, MC-VC-PABC-MMAE (DL3) on cysteines freed by reduction; positions not given; MC-VC-PABC-MMAE (DL3) on cysteines freed by reduction; positions not given; DAR 4 for the whole antibody) VH: QAYLQQSGAELVRPGASVKMSCKASGFTFTSYNVHWVKQTPRQGLEWIAAISPGNGDLSYNQRFKDKATLTVDRSSSTAYMQLSGLTSEDSAVYFCARGRTGMGAVDYWGQGTSVTVSS VL: DVQMTQTASSLSASLGDRVTISCRASQDVYSYLNWYQQKPHGTVKLLIYYTSRLQSGVPSRFTGSGSGTDYSLTISNLEPEDIATYYCQQYNIFPWTFGGGTKLEIKR | – | – | 0.2 | 0.18 | 0.05
v29455 humanized anti-NaPi2b antibody (H2L2) (antibody, human IgG1, kappa, V domains shown) VH: QVQLVQSGAEVKKPGASVKVSCKASGFTFTSYNVHWVRQAPGQGLEWIAAISPGNGDLSYAQKFQGRVTMTVDTSTSTVYMELSSLRSEDTAVYYCARGRTGMGAVDYWGQGTLVTVSS VL: DVQMTQSPSSLSASVGDRVTITCRASQDVYSYLNWYQQKPGKAVKLLIYYTSRLQSGVPSRFSGSGSGTDYTLTISSLQPEDFATYYCQQYNIFPWTFGQGTKLEIKR | 41900 | 1.18 | – | – | –
v29459 humanized anti-NaPi2b antibody (H2L1) (antibody, human IgG1, kappa, V domains shown) VH: QVQLVQSGAEVKKPGASVKVSCKASGFTFTSYNVHWVRQAPGQGLEWIAAISPGNGDLSYAQKFQGRVTMTVDTSTSTVYMELSSLRSEDTAVYYCARGRTGMGAVDYWGQGTLVTVSS VL: DIQMTQSPSSLSASVGDRVTITCRASQDVYSYLNWYQQKPGKAPKLLIYYTSRLQSGVPSRFSGSGSGTDFTLTISSLQPEDFATYYCQQYNIFPWTFGQGTKLEIKR | 40900 | 1.61 | – | – | –
v18992-DL1, MX35 conjugated to MC-GGFG-AM-DXd1 (DAR 8) (antibody, human IgG1, kappa, MC-GGFG-AM-DXd1 (DL1) on cysteines freed by reduction; positions not given; MC-GGFG-AM-DXd1 (DL1) on cysteines freed by reduction; positions not given; DAR 8 for the whole antibody) heavy 1: GQVQLVQSGAEVVKPGASVKMSCKASGYTFTGYNIHWVKQAPGQGLEWIGAIYPGNGDTSYKQKFRGRATLTADTSTSTVYMELSSLRSEDSAVYYCARGETARATFAYWGQGTLVTVSSASTKGPSVFPLAPSSKSTSGGTAALGCLVKDYFPEPVTVSWNSGALTSGVHTFPAVLQSSGLYSLSSVVTVPSSSLGTQTYICNVNHKPSNTKVDKKVEPKSCDKTHTCPPCPAPELLGGPSVFLFPPKPKDTLMISRTPEVTCVVVDVSHEDPEVKFNWYVDGVEVHNAKTKPREEQYNSTYRVVSVLTVLHQDWLNGKEYKCKVSNKALPAPIEKTISKAKGQPREPQVYVYPPSRDELTKNQVSLTCLVKGFYPSDIAVEWESNGQPENNYKTTPPVLDSDGSFALVSKLTVDKSRWQQGNVFSCSVMHEALHNHYTQKSLSLSPG heavy 2: not shown light: GDIQMTQSPSSLSASVGDRVTITCSASQDIGNFLNWYQQKPGKTVKVLIYYTSSLYSGVPSRFSGSGSGTDYTLTISSLQPEDFATYYCQQYSKLPLTFGQGTKLELKRTVAAPSVFIFPPSDEQLKSGTASVVCLLNNFYPREAKVQWKVDNALQSGNSQESVTEQDSKDSTYSLSSTLTLSKADYEKHKVYACEVTHQGLSSPVTKSFNRGEC | – | – | 0.68 | 1.04 | –
v18993-DL1, lifastuzumab conjugated to MC-GGFG-AM-DXd1 (DAR 8) (antibody, human IgG1, kappa, MC-GGFG-AM-DXd1 (DL1) on cysteines freed by reduction; positions not given; MC-GGFG-AM-DXd1 (DL1) on cysteines freed by reduction; positions not given; DAR 8 for the whole antibody) heavy 1: GEVQLVESGGGLVQPGGSLRLSCAASGFSFSDFAMSWVRQAPGKGLEWVATIGRVAFHTYYPDSMKGRFTISRDNSKNTLYLQMNSLRAEDTAVYYCARHRGFDVGHFDFWGQGTLVTVSSASTKGPSVFPLAPSSKSTSGGTAALGCLVKDYFPEPVTVSWNSGALTSGVHTFPAVLQSSGLYSLSSVVTVPSSSLGTQTYICNVNHKPSNTKVDKKVEPKSCDKTHTCPPCPAPELLGGPSVFLFPPKPKDTLMISRTPEVTCVVVDVSHEDPEVKFNWYVDGVEVHNAKTKPREEQYNSTYRVVSVLTVLHQDWLNGKEYKCKVSNKALPAPIEKTISKAKGQPREPQVYVYPPSRDELTKNQVSLTCLVKGFYPSDIAVEWESNGQPENNYKTTPPVLDSDGSFALVSKLTVDKSRWQQGNVFSCSVMHEALHNHYTQKSLSLSPG heavy 2: not shown light: GDIQMTQSPSSLSASVGDRVTITCRSSETLVHSSGNTYLEWYQQKPGKAPKLLIYRVSNRFSGVPSRFSGSGSGTDFTLTISSLQPEDFATYYCFQGSFNPLTFGQGTKVEIKRTVAAPSVFIFPPSDEQLKSGTASVVCLLNNFYPREAKVQWKVDNALQSGNSQESVTEQDSKDSTYSLSSTLTLSKADYEKHKVYACEVTHQGLSSPVTKSFNRGEC | – | – | 5.45 | 3.45 | –

The next lines start with results.

Bmax (MFI) [2] [MFI] | Kd [3] [nM] | Binder | In vitro cytotoxicity EC50 (nM), HCC-78 [1] [nM] | In vitro cytotoxicity EC50 (nM), IGROV-1 [1] [nM] | In vitro cytotoxicity EC50 (nM), OVCAR-3 [1] [nM]
40800 | 1.39 | v29458 humanized anti-NaPi2b antibody (H3L1) (antibody, human IgG1, kappa, V domains shown) VH: QVQLVQSGAEVKKPGASVKMSCKASGFTFTSYNVHWVRQAPGQGLEWIAAISPGNGDLSYAQKFQGRATLTVDTSTSTAYMELSSLRSEDTAVYYCARGRTGMGAVDYWGQGTLVTVSS VL: DIQMTQSPSSLSASVGDRVTITCRASQDVYSYLNWYQQKPGKAPKLLIYYTSRLQSGVPSRFSGSGSGTDFTLTISSLQPEDFATYYCQQYNIFPWTFGQGTKLEIKR | – | – | –
44500 | 0.79 | v29449 humanized anti-NaPi2b antibody (H4L3) (antibody, human IgG1, kappa, V domains shown, Full-size IgG1/kappa) VH: QVQLVQSGAEVKKPGASVKMSCKASGFTFTSYNVHWVRQAPGQGLEWIAAISPGNGDLSYAQKFQGRATLTVDRSTSTAYMELSSLRSEDTAVYYCARGRTGMGAVDYWGQGTLVTVSS VL: DVQMTQSPSSLSASVGDRVTITCRASQDVYSYLNWYQQKPGKAVKLLIYYTSRLQSGVPSRFSGSGSGTDYTLTISSLQPEDIATYYCQQYNIFPWTFGQGTKLEIKR | – | – | –
44500 | 1.73 | v29457 humanized anti-NaPi2b antibody (H4L1) (antibody, human IgG1, kappa, V domains shown) VH: QVQLVQSGAEVKKPGASVKMSCKASGFTFTSYNVHWVRQAPGQGLEWIAAISPGNGDLSYAQKFQGRATLTVDRSTSTAYMELSSLRSEDTAVYYCARGRTGMGAVDYWGQGTLVTVSS VL: DIQMTQSPSSLSASVGDRVTITCRASQDVYSYLNWYQQKPGKAPKLLIYYTSRLQSGVPSRFSGSGSGTDFTLTISSLQPEDFATYYCQQYNIFPWTFGQGTKLEIKR | – | – | –
44500 | 0.82 | v29453 humanized anti-NaPi2b antibody (H4L2) (antibody, human IgG1, kappa, V domains shown) VH: QVQLVQSGAEVKKPGASVKMSCKASGFTFTSYNVHWVRQAPGQGLEWIAAISPGNGDLSYAQKFQGRATLTVDRSTSTAYMELSSLRSEDTAVYYCARGRTGMGAVDYWGQGTLVTVSS VL: DVQMTQSPSSLSASVGDRVTITCRASQDVYSYLNWYQQKPGKAVKLLIYYTSRLQSGVPSRFSGSGSGTDYTLTISSLQPEDFATYYCQQYNIFPWTFGQGTKLEIKR | – | – | –
42300 | 0.92 | v29454 humanized anti-NaPi2b antibody (H3L2) (antibody, human IgG1, kappa, V domains shown) VH: QVQLVQSGAEVKKPGASVKMSCKASGFTFTSYNVHWVRQAPGQGLEWIAAISPGNGDLSYAQKFQGRATLTVDTSTSTAYMELSSLRSEDTAVYYCARGRTGMGAVDYWGQGTLVTVSS VL: DVQMTQSPSSLSASVGDRVTITCRASQDVYSYLNWYQQKPGKAVKLLIYYTSRLQSGVPSRFSGSGSGTDYTLTISSLQPEDFATYYCQQYNIFPWTFGQGTKLEIKR | – | – | –
43800 | 0.96 | v29450 humanized anti-NaPi2b antibody (H3L3) (antibody, human IgG1, kappa, V domains shown) VH: QVQLVQSGAEVKKPGASVKMSCKASGFTFTSYNVHWVRQAPGQGLEWIAAISPGNGDLSYAQKFQGRATLTVDTSTSTAYMELSSLRSEDTAVYYCARGRTGMGAVDYWGQGTLVTVSS VL: DVQMTQSPSSLSASVGDRVTITCRASQDVYSYLNWYQQKPGKAVKLLIYYTSRLQSGVPSRFSGSGSGTDYTLTISSLQPEDIATYYCQQYNIFPWTFGQGTKLEIKR | – | – | –
46200 | 1.49 | v29451 humanized anti-NaPi2b antibody (H2L3) (antibody, human IgG1, kappa, V domains shown) VH: QVQLVQSGAEVKKPGASVKVSCKASGFTFTSYNVHWVRQAPGQGLEWIAAISPGNGDLSYAQKFQGRVTMTVDTSTSTVYMELSSLRSEDTAVYYCARGRTGMGAVDYWGQGTLVTVSS VL: DVQMTQSPSSLSASVGDRVTITCRASQDVYSYLNWYQQKPGKAVKLLIYYTSRLQSGVPSRFSGSGSGTDYTLTISSLQPEDIATYYCQQYNIFPWTFGQGTKLEIKR | – | – | –
